{"source": "paper PMC8450099", "binders": {"B1": {"name": "homoduplex AO4549/AO4548 (48-mer in Methods, called 49 bp in Results) (dsDNA)", "DNA 1": "CTGGACGGGTTAAGACCGAACGTGGCTCCAGAAACGGGTGCAACTGGG", "DNA 2": "CCCAGTTGCACCCGTTTCTGGAGCCACGTTCGGTCTTAACCCGTCCAG"}}, "assay_in_all_cases": "MST", "key": {"[1]": {"target": "T1, Mlh1-FRB355,FKBP464 (Complex #1 subunit);Pms1 (Saccharomyces cerevisiae (baker's …, UniProt P38920;P14242 1-355+=[…]+356-464+=GS+P62942:2-108+=GS+465-769;1-873, internal_change|)"}, "[2]": {"target": "T2, Mlh1;Pms1 (Saccharomyces cerevisiae (baker's …, UniProt P38920;P14242 1-769;1-873, |))"}, "[3]": {"target": "T3, Mlh1-FRB355 (Complex #5 subunit);Pms1-FKBP460 (Complex #5 subunit) (Saccharomyces cerevisiae (baker's …, UniProt P38920;P14242 1-355+=[…]+356-769;1-460+=GS+P62942:2-108+=GS+461-873, internal_change|internal_change)"}, "[4]": {"target": "T4, Mlh1-FKBP464 (Complex #2 subunit);Pms1-FRB627 (Complex #2 subunit) (Saccharomyces cerevisiae (baker's …, UniProt P38920;P14242 1-464+=GS+P62942:2-108+=GS+465-769;1-627+=[…]+628-873, internal_change|internal_change)"}, "[5]": {"target": "T1, Mlh1-FRB355,FKBP464 (Complex #1 …)", "remark": "listed apart in the source"}, "[6]": {"target": "T2, Mlh1;Pms1", "remark": "listed apart in the source"}, "[7]": {"target": "T4, Mlh1-FKBP464 (Complex #2 …)", "remark": "listed apart in the source"}, "[8]": {"target": "T1, Mlh1-FRB355,FKBP464 (Complex #1 …)", "remark": "listed apart in the source"}, "[9]": {"target": "T2, Mlh1;Pms1", "remark": "listed apart in the source"}, "[10]": {"target": "T3, Mlh1-FRB355 (Complex #5 …)", "remark": "listed apart in the source"}, "[11]": {"target": "T4, Mlh1-FKBP464 (Complex #2 …)", "remark": "listed apart in the source"}, "[12]": {"target": "T2, Mlh1;Pms1", "remark": "listed apart in the source"}, "[13]": {"target": "T4, Mlh1-FKBP464 (Complex #2 …)", "remark": "listed apart in the source"}}, "note": "Read-outs that look alike come from different tables or passages of the source.", "data": [{"binder": "B1", "values": [{"measurement": "Kd", "setting": "[1]", "value": 98.4, "unit": "nM"}, {"measurement": "Kd", "setting": "[2]", "value": 141, "unit": "nM"}, {"measurement": "Kd", "setting": "[3]", "value": 287, "unit": "nM"}, {"measurement": "Kd", "setting": "[4]", "value": 207, "unit": "nM"}, {"measurement": "Kd", "setting": "[5]", "value": 198, "unit": "nM"}, {"measurement": "Kd", "setting": "[6]", "value": 173, "unit": "nM"}, {"measurement": "Kd", "setting": "[7]", "value": 211, "unit": "nM"}, {"measurement": "Kd", "setting": "[8]", "value": 421, "unit": "nM"}, {"measurement": "Kd", "setting": "[9]", "value": 675, "unit": "nM"}, {"measurement": "Kd", "setting": "[10]", "value": 556, "unit": "nM"}, {"measurement": "Kd", "setting": "[11]", "value": 431, "unit": "nM"}, {"measurement": "Kd", "setting": "[12]", "value": 628, "unit": "nM"}, {"measurement": "Kd", "setting": "[13]", "value": 391, "unit": "nM"}]}]}
